Source: patent US20210292393A1 (published 2021)
Residue numbers refer to the chain shown, from its start.

B1: antibody 318 (antibody, V domains shown)
VH: QVQLVESGGGVVPPGRSLSLPCAASGFSFSAYAMHWLRQAPGKGLEWVAVISYDGTVKYVADSVRGRFTISRDNSNNTLYLQMTSLRSDDTAVYYCARDLGALAAAPTVYFVHWGQGTLVTVSS
VL: SYVLTQPPSVSVAPGKTATITCAGEDIGRKSVHWYQQKPGQAPVLVIFYYSDRPSGIPDRFSGSVSGNTATLTIGRVEAGDEADYFCQVWDRTTNHVIFGGGTKVTVL
B2: antibody 370 (antibody, V domains shown)
VH: B1 VH with S28T
VL: B1 VL
B3: antibody 310 (antibody, V domains shown)
VH: EVQLVESGGGLVQPGGSLRLSCAASGFTFSSYWMSWVRQAPGKGLEWVANIKQDGSEKYYVDSVKGRFTISRDNAKNSLYLQMNSLRAEDTAVYYCARVGSSSWYFDYWGQGTLVTVSS
VL: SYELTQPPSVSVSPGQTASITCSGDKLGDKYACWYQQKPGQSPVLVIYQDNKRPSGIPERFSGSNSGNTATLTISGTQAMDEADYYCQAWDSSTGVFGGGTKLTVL
B4: antibody 298 (antibody, V domains shown)
VH: EVQLVESGGGLVQPGGSLRLSCAASGFTVSSNYMSWVRQAPGKGLEWVSVIYSGGSTYYADSVKGRFTISRDNSKNTLYLQMNSLRAEDTAVYYCAREEGEWEKDYYGMDVWGQGTTVTVSS
VL: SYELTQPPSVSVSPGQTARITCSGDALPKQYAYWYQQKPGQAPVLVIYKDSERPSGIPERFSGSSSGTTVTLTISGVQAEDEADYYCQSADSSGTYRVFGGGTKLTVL
B5: antibody 305 (antibody, V domains shown)
VH: QVQLVESGGGVVQPGRSLRLSCAASGFTFSSYAMHWVRQAPGKGLEWVAVISYDGSNKYYADSVKGRFTISRDNSKNTLYLQMNSLRAEDTAVYYCAREQTSYDYVWGTLGAYYYYGMDVWGQGTTVTVSS
VL: SSELTQDPAVSVALGQTVRITCQGDSLRSYYASWYQQKPGQAPVLVIYGKNNRPSGIPDRFSGSSSGNTASLTITGAQAEDEADYYCNSRDSSGNHLVFGGGTKLTVL
B6: antibody 308 (antibody, V domains shown)
VH: QLQLQESGPGLVKPSETLSLTCSVSGGSISSSSYHWGWIRQPPGKGLEWIGSIYYSGSTYYNPSLKSRVTISVDTSKNQFSLKLRSVTAADTAVYYCAGLRVVITFGGVIPKGGAFDIWGQGTMVTVSS
VL: QSALTQPASVSGSPGQSITISCTGTSSDVGGYNYVSWYQQHPGKAPKLMIYDVSNRPSGVSNRFSGSKSGNTASLTISGLQAEDEADYYCSSYTSSSTVVFGGGTKLTVL
B7: antibody 330 (antibody, V domains shown)
VH: QVQLVESGGGVVQPGRSLRLSCAASGFTFSSYAMHWVRQAPGKGLEWVAVISYDGSNKYYADSVKGRFTISRDNSKNTLYLQMNSLRAEDTAVYYCARDFQYYDFWSGYLTVSSPTSYYGMDVWGQGTTVTVSS
VL: NFMLTQPHSVSESPGKTVTISCTGSSGSIASNYVQWYQQRPGSAPTTVIYEDNQRPSGVPDRFSGSIDSSSNSASLTISGLKTEDEADYYCQSYDSSNVVFGGGTKLTVL
B8: antibody 258 (antibody, V domains shown)
VH: QVQLQESGPGLVKPSETLSLTCTVSGGSISSYYWSWIRQPAGKGLEWIGRIYTSGSTNYNPSLKSRVTMSVDTSKNQFSLKLSSVTAADTAVYYCAAGYGSIDYWGQGTLVTVSS
VL: not shown
B9: antibody 277 (antibody, V domains shown)
VH: QVQLVESGGGVVQPGRSLRLSCAASGFTFSSYAMHWVRQAPGKGLEWVAVISYDGSNTYYADSVKGRFTISRDNSKNTLYLQMNSLRAEDTAVYYCARPYSGSYFNWFDPWGQGTLVTVSS
VL: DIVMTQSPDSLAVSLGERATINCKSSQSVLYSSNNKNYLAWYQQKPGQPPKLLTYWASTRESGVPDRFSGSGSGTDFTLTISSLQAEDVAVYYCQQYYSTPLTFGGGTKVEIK
B10: antibody 291 (antibody, V domains shown)
VH: B9 VH with T58K, P99A, Y100S, S101G, N106G, W107G, F108M, P110V, L116T
VL: QSALTQPASVSGSPGQSITISCTGTSSDVGGYNYVSWYQQHPGKAPKLMIYEVSNRPSGVSNRFSGSKSGNTASLTISGLQAEDEADYYCSSYTSSSTLYVFGTGTKVTVL
B11: antibody 313 (antibody, V domains shown)
VH: B9 VH with T58K, P99G, Y100L, S101G, F105Y, N106S, W107L, P110Y
VL: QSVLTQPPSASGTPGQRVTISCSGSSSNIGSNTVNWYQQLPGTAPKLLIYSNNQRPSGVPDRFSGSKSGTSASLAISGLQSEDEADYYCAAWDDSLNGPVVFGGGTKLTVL
B12: antibody 311 (antibody, V domains shown)
VH: QVQLQESGPGLVKPSETLSLTCTVSGYSISSGYYWGWIRQPPGKGLEWIGSIYHSGSTYYNPSLKSRVTISVDTSKNQFSLKLSSVTAADTAVYYCAREETLGSSWYESYIDYWGQGTLVTVSS
VL: SYVLTQPPSVSVAPGKTARITCGGNNIGSKSVHWYQQKPGQAPVLVIYYDSDRPSGIPERFSGSNSGNTATLTISRVEAGDEADYYCQVWDSSSDHPRVFGGGTKLTVL
B13: antibody 302 (antibody, V domains shown)
VH: QVQLVQSGAEVRKPGASVKVSCKVSGYTLSELSMHWVRQAPGKGLEWMGGFDPEDGERMYAQKFQGRVTMTEDTSTDTAYMELSSLRSEDTAIYYCTTDLSYLWSGKLEPDYWYFALWGRGTLVTVSS
VL: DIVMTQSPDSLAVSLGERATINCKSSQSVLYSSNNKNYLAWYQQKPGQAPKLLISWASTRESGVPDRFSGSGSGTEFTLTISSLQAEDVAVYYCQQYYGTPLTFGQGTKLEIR
B14: antibody 278 (antibody, V domains shown)
VH: QVQLVQSGAEVKKPGASVKVSCKASGYTFTSYYMHWVRQAPGQGLEWMGIINPSGGSTSYAQKFQGRVTMTRDTSTSTVYMELSSLRSEDTAVYYCARDHSNADPYYDFWSGYYTRTYYYGMDVWGQGTTVTVSS
VL: not shown
B15: antibody 307 (antibody, V domains shown)
VH: QVQLVESGGGVVQPGRSLRLSCAASGFTFSSYGMHWVRQAPGKGLEWVAVIWYDGSNKYYADSVKGRFTISRDNSKNTLYLQMNSLRAEDTAVYYCAKGYTWDYYYYGMDVWGQGTTVTVSS
VL: not shown
B16: antibody 297 (antibody, V domains shown)
VH: QVQLVESGGGVVQPGRSLRLSCAASGFTFSSYAMHWVRQAPGKGLEWVAVISYDGSNKYYADSVKGRFTISRDNSKNTLYLQMNSLRAEDTAVYYCARSFRGGYYYGMDVWGQGTTVTVSS
VL: DIQLTQSPSFLSASVGDRVTITCRASQGISSYLAWYQQKPGKAPKLLIYAASTLQSGVPSRFSGSGSGTEFTLTISSLQPEDFATYYCQQLNSYPLFTFGPGTKVDIK
B17: antibody 261 (antibody, V domains shown)
VH: QVQLVESGGGVVQPGRSLRLSCAASGFTFSSYAMHWVRQAPGKGLEWVAVISYDGSNKYYADSVKGRFTISRDNSKNTLYLQMNSLRAEDTAVYYCARDEAYYDILTGYINAPKNYYYYGMDVWGQGTTVTVSS
VL: DIQMTQSPSSLSASVGDRVTITCRASQGIRNDLGWYQQKPGKAPKRLIYAASSLQSGVPSRFSGSGSGTEFTLTISSLQPEDFATYYCLQHNSYPFTFGPGTKVDIK

What follows are binders tested against SARS-CoV-2 spike (S) protein (SARS-CoV-2, UniProt P0DTC2 14-1208).
For B1, the Kd was 11.1 nM, the koff was 0.0017 s⁻¹ and the kon was 152000 M⁻¹ s⁻¹.
Work on B2 yielded a Kd of 5.55 nM, a koff of 0.000986 s⁻¹ and a kon of 178000 M⁻¹ s⁻¹.
Binder B3 has a Kd of 0.532 nM, a koff of 6.43e-05 s⁻¹ and a kon of 121000 M⁻¹ s⁻¹.
B4 showed a Kd of 0.0225 nM, a koff of 1.34e-05 s⁻¹ and a kon of 597000 M⁻¹ s⁻¹.
B5 showed a Kd of 13.8 nM, a koff of 0.001 s⁻¹ and a kon of 72600 M⁻¹ s⁻¹.
With B6 the Kd was 0.495 nM, the koff was 6.89e-05 s⁻¹ and the kon was 139000 M⁻¹ s⁻¹.
In the case of B7, the Kd is reported as 9.54 nM, the koff is reported as 0.00073 s⁻¹ and the kon is reported as 76500 M⁻¹ s⁻¹.
In the case of B8, the Kd is reported as 0.996 nM, the koff is reported as 8.36e-05 s⁻¹ and the kon is reported as 84000 M⁻¹ s⁻¹.
Work on B9 yielded a Kd of 0.204 nM, a koff of 6.24e-05 s⁻¹ and a kon of 305000 M⁻¹ s⁻¹.
In the case of B10, the Kd is reported as 0.117 nM, the koff is reported as 5.43e-05 s⁻¹ and the kon is reported as 464000 M⁻¹ s⁻¹.
In the case of B11, the Kd is reported as 0.0975 nM, the koff is reported as 4.89e-05 s⁻¹ and the kon is reported as 502000 M⁻¹ s⁻¹.
In the case of B12, the Kd is reported as 19.1 nM, the koff is reported as 0.000407 s⁻¹ and the kon is reported as 21300 M⁻¹ s⁻¹.
For B13, the Kd was 0.726 nM, the koff was 7.63e-05 s⁻¹ and the kon was 105000 M⁻¹ s⁻¹.
B14 was tested, and the Kd was 4.78 nM, the koff was 0.000862 s⁻¹ and the kon was 201000 M⁻¹ s⁻¹.
For B15, the Kd was 17 nM and the koff was 0.00171 s⁻¹.
Work on B16 yielded a Kd of 1.6 nM, a koff of 0.000127 s⁻¹ and a kon of 79800 M⁻¹ s⁻¹.
For B17, the Kd was 5.37 nM, the koff was 0.000695 s⁻¹ and the kon was 129000 M⁻¹ s⁻¹.
